Drawing on patent publication US20190085043A1, “FUSION PROTEINS FOR TREATING A METABOLIC SYNDROME” (SANOFI, priority 2012, published 2019), this text covers EC50 for 1 molecule.

In one assay the target is human FGFR1c plus KLB (Homo sapiens, UniProt P11362+Q86Z14). The experiment in a line: FGF-21 receptor autophosphorylation In-Cell Western (pFGFR ICW) in CHO cells. The following applies: CHO cells overexpressing human FGFR1c plus KLB, FGFR autophosphorylation. In kind it is cell-based. As to the method: FIG. 1B-1 to FIG. 1B-4) The FGF induced FGFR autophosphorylation was measured via a specific and highly sensitive In-Cell Western (ICW) in CHO cells stably overexpressing human FGFR1c together with human betaKlotho (KLB). In-Cell Western assay is an immunocytochemical assay usually performed in microplate format. Target-specific primary antibodies and infrared-labelled secondary antibodies are used to detect target proteins in fixed cells, and fluorescent signal from each well is quantified (e.g. the In-Cell Western assay from LI-COR Biosciences, USA).
The cellular efficacy of FGF-21 or FGF-21 fusion proteins was measured using a specific and highly sensitive In-Cell Western (ICW) assay. The ICW assay is an immunocytochemical assay usually performed in microplate format.
(§1) CHO Flp-In cells (Invitrogen, Darmstadt, Germany) stable expressing the human FGFR1c together with human beta-Klotho (KLB) were used for FGF-21 receptor autophosphorylation assay using In-Cell Western. In order to determine the receptor autophosphorylation level, 2×10^4 cells/well were seeded into 96-well plates and grown for 48 h. […] Subsequently cells were washed again with PBS+0.1% Tween20 and infrared dye signals were quantified with an Odyssey imager (LICOR, Bad Homburg, Germany). Results were normalized by quantification of DNA with TO-PRO3 dye (Invitrogen, Karlsruhe, Germany). […]

The next assay has as its system MAP kinase ERK1/2. The assay is described as follows: ERK1/2 phosphorylation In-Cell Western (pERK ICW) in CHO cells overexpressing human FGFR1c plus KLB. In kind it is cell-based. The following applies: ERK1/2 phosphorylation Thr202/Tyr204. The procedure: FIG. 1C-1 to FIG. 1C-3) Dose dependent in vitro activation of the downstream effector ERK. Activation of the downstream effector of FGF signaling, the MAP kinase ERK1/2, was determined via In-Cell Western assay in CHO cells stably overexpressing human FGFR1c and KLB using an antibody directed against the ERK1/2 phosphorylated amino acid residues threonine 202 and tyrosine 204.
as §1, with “h. Cells were serum starved with serum-free medium Ham's F-12 Nutrient Mix with GlutaMAX (Gibco, Darmstadt, Germany) for 3-4 h.” for “h.”
To assess the activation of a downstream effector of FGFR signalling by FGF-21-GLP-1RA fusion proteins the phosphorylation of MAP kinases ERK1/2 were analysed. […]

Sequence of human FGFR1c plus KLB (P11362 22-822): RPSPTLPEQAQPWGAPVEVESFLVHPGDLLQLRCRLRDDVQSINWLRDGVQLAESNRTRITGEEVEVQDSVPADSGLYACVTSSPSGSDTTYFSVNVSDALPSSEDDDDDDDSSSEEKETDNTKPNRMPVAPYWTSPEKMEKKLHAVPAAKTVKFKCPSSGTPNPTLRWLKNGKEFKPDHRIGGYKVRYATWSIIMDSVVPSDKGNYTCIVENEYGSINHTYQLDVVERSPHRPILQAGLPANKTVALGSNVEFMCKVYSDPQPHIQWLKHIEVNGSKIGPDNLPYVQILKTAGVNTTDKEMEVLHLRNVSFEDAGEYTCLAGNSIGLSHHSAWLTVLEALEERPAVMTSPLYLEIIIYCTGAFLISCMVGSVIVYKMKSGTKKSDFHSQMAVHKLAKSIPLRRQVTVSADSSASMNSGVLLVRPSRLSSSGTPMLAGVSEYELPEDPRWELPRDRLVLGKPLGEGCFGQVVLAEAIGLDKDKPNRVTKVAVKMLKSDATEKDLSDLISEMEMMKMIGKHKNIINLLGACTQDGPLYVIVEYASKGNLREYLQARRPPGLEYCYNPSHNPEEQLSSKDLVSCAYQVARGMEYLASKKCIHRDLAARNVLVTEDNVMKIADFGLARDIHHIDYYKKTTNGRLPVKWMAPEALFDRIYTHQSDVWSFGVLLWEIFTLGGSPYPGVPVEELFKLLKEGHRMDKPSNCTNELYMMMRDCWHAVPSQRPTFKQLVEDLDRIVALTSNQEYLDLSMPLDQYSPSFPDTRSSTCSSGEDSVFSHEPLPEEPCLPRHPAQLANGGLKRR
Sequence of human FGFR1c plus KLB (Q86Z14 whole entry): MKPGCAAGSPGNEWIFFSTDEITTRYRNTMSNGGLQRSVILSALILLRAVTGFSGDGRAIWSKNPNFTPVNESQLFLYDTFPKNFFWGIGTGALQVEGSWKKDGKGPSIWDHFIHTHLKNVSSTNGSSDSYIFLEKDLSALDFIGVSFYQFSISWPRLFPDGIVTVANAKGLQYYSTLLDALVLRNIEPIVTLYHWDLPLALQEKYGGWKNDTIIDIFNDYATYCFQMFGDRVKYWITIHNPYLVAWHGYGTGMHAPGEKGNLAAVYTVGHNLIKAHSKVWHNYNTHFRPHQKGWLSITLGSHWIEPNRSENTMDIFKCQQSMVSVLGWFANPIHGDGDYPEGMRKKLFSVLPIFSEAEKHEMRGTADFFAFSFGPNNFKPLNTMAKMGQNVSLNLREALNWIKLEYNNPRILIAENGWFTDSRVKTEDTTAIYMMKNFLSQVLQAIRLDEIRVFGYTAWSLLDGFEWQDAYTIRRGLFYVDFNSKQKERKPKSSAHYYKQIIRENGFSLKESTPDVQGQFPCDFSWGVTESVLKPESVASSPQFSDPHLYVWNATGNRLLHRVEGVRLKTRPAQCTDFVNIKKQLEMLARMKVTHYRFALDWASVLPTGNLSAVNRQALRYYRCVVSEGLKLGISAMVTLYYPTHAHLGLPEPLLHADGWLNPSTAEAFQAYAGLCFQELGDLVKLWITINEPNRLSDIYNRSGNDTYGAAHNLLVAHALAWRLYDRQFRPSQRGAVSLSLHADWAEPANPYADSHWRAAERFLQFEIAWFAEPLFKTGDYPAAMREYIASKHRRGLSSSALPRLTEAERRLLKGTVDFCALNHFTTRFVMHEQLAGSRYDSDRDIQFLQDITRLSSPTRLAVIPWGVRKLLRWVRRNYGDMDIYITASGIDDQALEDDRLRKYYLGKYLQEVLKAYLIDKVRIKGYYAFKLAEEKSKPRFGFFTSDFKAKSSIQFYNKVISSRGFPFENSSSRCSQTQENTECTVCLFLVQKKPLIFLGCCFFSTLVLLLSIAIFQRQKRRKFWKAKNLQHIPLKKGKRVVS

B1: FGF21 wild type: Native Human FGF-21 without signal sequence (protein)
chain: HPIPDSSPLLQPGGQVRQRYLYTDDAQQTEAHLEIREDGTVGGAADQSPESLLQLKALKPGVIQILGVKTSRFLCQRPDGALYGSLHFDPEACSFRELLLEDGYNVYQSEAHGLPLHLPGNKSPHRDPAPRGPARFLPLPGLPPAPPEPPGILAPQPPDVGSSDPLSMVGPSQGRSPSYAS
modifications: FGF-21 mutein H29-S209
Consider B1, for which the EC50 with human FGFR1c plus KLB worked out at 4.3 nM; in the assay with MAP kinase ERK1/2, 0.135 nM.

What is called EC50 is the concentration needed to bring the measured effect to its halfway point.
